# Reference: paper PMC1369289
# T1: JunB selected fragment (Mus musculus, UniProt P09450 265-328)
# T1 sequence: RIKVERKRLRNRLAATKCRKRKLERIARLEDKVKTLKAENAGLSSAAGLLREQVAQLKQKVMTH
# T2: JunD selected fragment (Mus musculus, UniProt P15066 262-325)
# T2 sequence: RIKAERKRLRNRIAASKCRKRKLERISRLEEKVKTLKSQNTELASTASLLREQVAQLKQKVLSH
# Experiments:
# [1] = target: c-Fos model fragment;c-Jun model fragment (Mus musculus?;Mus musculus?, UniProt P01101;P05627 118-212;237-334, |); experiment: mRNA display affinity selection, qPCR
# c-Fos model fragment;c-Jun model fragment, sequence (P01101 118-212, chain 1 of 2): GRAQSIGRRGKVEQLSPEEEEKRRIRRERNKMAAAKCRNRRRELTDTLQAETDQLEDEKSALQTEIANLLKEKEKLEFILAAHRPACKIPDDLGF
# c-Fos model fragment;c-Jun model fragment, sequence (P05627 237-334, chain 2 of 2): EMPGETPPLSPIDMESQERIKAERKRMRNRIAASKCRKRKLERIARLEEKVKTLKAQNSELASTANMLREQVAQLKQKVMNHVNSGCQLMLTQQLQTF
# JunB selected fragment = target: T1, JunB selected fragment; experiment: EMSA
# c-Jun selected fragment = c-Jun selected fragment (Mus musculus, UniProt P05627 255-313); experiment: EMSA
# c-Jun selected fragment, sequence (P05627 255-313): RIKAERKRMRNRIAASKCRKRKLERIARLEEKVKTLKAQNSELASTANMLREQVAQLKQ
# JunD selected fragment = target: T2, JunD selected fragment; experiment: EMSA
Binder,binding signal [1],binding result (JunB selected fragment),binding result (c-Jun selected fragment),binding result (JunD selected fragment)
TRE bait DNA (dsDNA) DNA 1: TGATGACTCATCTCCTATGACTCATCCATTGCATGACTCAGACTTGATGAGTCAGCCGAGCATGAGTCAGACACCTTGCCTGAGCTCAGA DNA 2: TTCTGAGCTCAGGCAAGGTGTCTGACTCATGCTCGGCTGACTCATCAAGTCTGAGTCATGCAATGGATGAGTCATAGGAGATGAGTCATCA,~100 fold enrichment,–,–,–
TRE EMSA probe (dsDNA) DNA 1: TTCTCCTATGACTCATCCAT DNA 2: AATGGATGAGTCATAGGAGA,–,binds,binds,binds
